Here are results for 15 sequences from a protein production outcome set (Wang et al. 2014).

This data set is described as follows: label from the status in PepcDB records.

As for “MALAEDDGFYMGVGYQIGGAQQNIDNKGSTLRNNVINNFRQVGVGMAGGNGLLALATNTTMDALLGIGNQIVNTNTTVSNNNAELTQFKKILPQIEQRFETNKNAYSVQALQVYLSNVLYNLVNNSNNGSNNGVVPEYVGIIKVLYGSQNEFSLLATESVVLLNALTRVNLDSNSVFLKGLLAQMQLFNDTSSAKLGQIAENLKNGGAGSMLQKDVKTISDRIATYQENLKQLGGMLKNYDEPYLPQFGPGTSSQHGVINGFGIQVGYKQFFGNKRNIGLRYYAFFDYGFTQLGSLSSAVKANIFTYGAGTDFLWNIFRRVFSDQSLNVGVFGGIQIAGNTWDSSLRGQIENSFKEYPTPTNFQFLFNLGLRAHFASTMHRRFLSASQSIQHGMEFGVKIPAINQRYLRANGADVDYRRLYAFYINYTIGF”, the protein production result is listed as “failed”. Under “MALAVYLVPLPGLRASGHAALALLVFAVTMWATEAVPLAVTSLIILFAQPLIGVESFENAVIGFANPILFLMIGGFIMAEAIRKSGLAQRFTYYLLGRLGTSPERGLFVSIFSTGLLSAWIENVVAFAMLLPIIKEIVDIMGCSEPEKGKSNYAKAMILGASFGSLAGGFGTEIGTAPNLMAAAYTSIPFLNWMIFGLPLSIAMLLVTWFLLMRIFPSEVRALENGDALIGERIRMMGSMSRDEKLSAGILLFAILLWVTAGFTGINSYSVSLIAAVMFIFAGVITWKDAQKNIDWGLVVFFGGALSLGSALLKTGAAAWIIDKLVGMLGSDPSTVIVMLVLMAVAVIITQVMSNIALSAILVPLSVTLASAQHQPIGVYAVPVAIACSLSFMLPMADPTVAMAYGSGYVKLRDIPRAGIPIIAVGIILTVLVITTLAAPFIS” stands “failed”; under “MALEQTLKKDWYSILGADPSANMSDLKQKYQKLILLYHPDKQSADVPAGTMEECMQKFIEIDQAWKILGNEETKKKYDLQR”, “not failed”. Under “MALHSSSDQYGSVAVTIHWLTAVLIVIALLTGFRAAAAEDVTTEAALLRVHLPAAALVLVLTVVRVVWWLGIDDKPEPIDGAPRSQQLIAGTVHLLFYVVVFGMIASGIGMMLASGAAPAIFSRDVPALPEFWHYRPRIPHGLGARLLVLLLIAHLAAALYHHLRGDRVFRRMWFGRNPKS” stands “failed”; under “MALKPTIYKFRIALSDMNNDYYDSKNLTIALHPSEKPQRMLARILAFCLNAQKDLEFTKGLSTTEEPDLWHVADDQSITHWIEIGEPEPDRIKKASRLAKQVKVYTYNTKAPVWWEKMSGKFSMLPVSVESFDYDAIDMICQHLDRGTNLSVMITGTSIFVDVNDQHVEVTVKELQSHDAP”, “not failed”; under “MALKTDIRGMIWRYPDYFIVGREQCREFARAVKCDHPAFFSEEAAADLGYDALVAPLTFVTILAKYVQLDFFRHVDVGMETMQIVQVDQRFVFHKPVLAGDKLWARMDIHSVDERFGADIVVTRNLCTNDDGELVMEAYTTLMGQQGDGSARLKWDKESGQVIRTALEHHHHHH”, “failed”. Under “MALLRRFIGQKVRTVIQVTGSEIGSVVGKSTDDLQIVVRGSSPPSPLTTYLEVIGIAESDNAIRAETWTNFGNTFDTQNYNELCKLAN” stands “failed”; under “MALPQLSIWQPGDGLRKIKYKYHVCLIVIFSVLIRLLFLTDRYLWCDEASSVLISRHSVDNLLFHAAFDVHPPLYYLLLHDWIILLGDSIAAVRSLSLLFGILTVVLVIALTRWLANERTALLAGWFAALMPMAVHYSQETRMYALMGMLTLAAALALMMWIKTPTHNRYLVAYALLMTFSFYTHYFTLFTLIAHWIAVTILSCQSHKTACYLKLPGWWFANLAIAVAYLPWLPVLFNLLTHLAQLRAGNDIGWIPPVTWRDLPAMYWHFFTGNNGQGFPSFILWLAVGGFIGTVGRISLYNGEYERYQLILFCNLVIPVMLVFIISWWMPLFIDRYFFFSSLSIPPLLAVLLTRAKKAVCGFWFILFTLLFGYGSYHNNPEHIDEFKPLVNYINTRHQPNDAVVVSKMFDYLSYVYYNKRDYRTFLYTPPNAHGTSGRPNAYGFGSLFYAQADQTYIDTLTTLSKSYHRVWLVSGGNFSQDYPLPSEWQNIAKFRSGRFQVQLFVIPTQQARQMQ”, “failed”. Consider “MALQAGVEKGENLVVAAPTGSGKTFIALVAIVNSLARAGGRAFYLVPLKSVAYEKYTSFSILSRMGLKLKISVGDFREGPPEAPVVIATYEKFDSLLRVSPSLARNVSVLIVDEIHSVSDPKRGPILESIVSRMLASAGEAQLVGLSATVPNAGEIAEWIGGKIVESSWRPVPLREYVFKEYKLYSPTGGLREVPRVYGLYDLDLAAEAIEDGGQALVFTYSRRRAVTLAKRAAKRLGRRLSSREARVYSAEASRAEGAPRSVAEELASLIAAGIAYHHAGLPPSLRKTVEEAFRAGAVKVVYSTPTLAAGVNLPARRVVIDSYYRYEAGFREPIRVAEYKQMAGRAGRPGLDEFGEAIIVAERLDRPEDLISGYIRAPPERVESRLAGLRGLRHFILGIVAPEGEVSIGSIEKVSGLTLYSLQRGLPRETIARAVEDLSAWGLVEVKGWRIAATSLGREVAAVYLDPESVPVFREEVKHLSFDNEFDILYLISTMPDMVRLPATRREEERLLEAILDASPRMLSSVDWLGPEEMAAVKTAVVLKLWIDEASEDTIYGEWGVHTGDLLNMVSTAEWIASGLSRIAPYLGLNSKVSHILSVIARRIKHGVKPELLQLVEIPGVGRVRARILFEAGYRSIEDLATARAEDLMRLPLIGPSTARQILEFLGRVDEAREAEAREMLARKGLLSYLEGDAVAGEEGE”, for which the protein production entry is on record as “failed”.

With “MALRKIAGLYRIEKFIRERPVEKIRQWRQRYSRPIVNDLFAWPEEQEPCCPPDGPLNKAINYILNRRDELSCFLSDGAVPLDNNICERAIRPVVMGRKAWLFAGSLMAGNRAAQIMSLLETAKRNGLEPHAWLTDVLTRLPEWPEDRLEELLPLEGFTFSG”, the protein production entry is given as “failed”.

As to “MALRLALSLCVYLLFTQGAQGNTDDFDCVEIYKQPAFQHPLLKDHKIQETFSLDGKIERSNKYNTKEHCPKGTVAILRQRNVSKGVHLNTAEYSGQHFATIETILDGSIYRGAEADISIHDLKLQNNQYSKSQIWLENGPPGQLNSIQAGLAVHPRLYGDSVTRFTIYWTGDGYQKTGCYNTQCPGFVVVSRNSRIGSGFWGTSVYGKTSLTFKLQVFQDGFSGNWALKMFDEVIGYWPKELFSHLNNGASLVRYGGNTFESPDGISPPMGNGFFPVADFKKTAHFNNVVVINSDYKRVYIEGRKIRLYVDSYNCFRATYWGYTKSTGEAFSFGGPGGNCGF”, the protein production result is reported as “failed”. In the case of “MALRTLSTFPSLPRRHTTTRREPNLTVIYRNPTTSIVCKSIANSEPPVSLSERDGFAAAAPTPGERFLENQRAHEAQKVVKKEIKKEKKKKKEEIIARKVVDTSVSCCYGCGAPLQTSDVDSPGFVDLVTYELKKKHHQLRTMICGRCQLLSHGHMITAVGGNGGYPGGKQFVSADELREKLSHLRHEKALIVKLVDIVDFNGSFLARVRDLVGANPIILVITKIDLLPKGTDMNCIGDWVVEVTMRKKLNVLSVHLTSSKSLDGVSGVASEIQKEKKGRDVYILGAANVGKSAFINALLKTMAERDPVAAAAQKYKPIQSAVPGTTLGPIQINAFVGGEKLYDTPGVHLHHRQAAVVHSDDLPALAPQNRLRGQSFDISTLPTQSSSSPKGESLNGYTFFWGGLVRIDILKALPETCFTFYGPKALEIHAVPTKTATAFYEAKLGVLLTPPSGKNQMQEWKGLQSHRLLQIEINDAKRPASDVAISGLGWISIEPIRKTRGTEPRDLNEAEHEIHICVSVPKPVEVFLRPTLPIGTSGTEWYQYRELTDKEEEVRPKWYF” it was “failed”; in that of “MALRVTFVAAARSSPLLAERFDDERPLDQAGWNEALRAAGDLLPLAAAELRYCSPTPRSRATGDAIGCAPLSQLALRACDMGRWRGLTLGEAMAREPAAVDAWLADPRSAPHGGESLLGFITRVGGWLDTRPGEDGDRIVAVAEPSVIRAALVYALKAPPGTYWNLDVRPLSTTTVTGRAGRWSLRFEGTPDQGATRPAFRGGNPL”, “failed”; in that of “MALTPDQMPDRAEVVFTCNGKAVGKMRNELDVAMVKPFEERFALATDEGAFHGGDASAPPPLALFIAGLTGCVMTQIRAFAKRLKVTVTDLDVECRVVWDWAKAGPVYETGPKSFEIDIILHSPDPIEAQQALIEAAKKGCFLEQTLGQANTIRHRLKVGDTFIDA”, “not failed”. In the case of “MALTTISPHDAQELIARGAKLIDIRDADEYLREHIPEADLAPLSVLEQSGLPAKLRHEQIIFHCQAGKRTSNNADKLAAIAAPAEIFLLEDGIDGWKKAGLPVAVNKSQPLPLMRQVQIAAGGLILIGVVLGYTVNSGFFLLSGFVGAGLLFAGISGFCGMARLLDKMPWNQRA” it was “failed”.
